According to article PMC3979677, “Low-Resolution Structure of the Full-Length Barley (Hordeum vulgare) SGT1 Protein in Solution, Obtained Using Small-Angle X-Ray Scattering” (PLoS ONE, 2014):

Legend:
[1] = target: the molecule itself; test: SAXS; full-length SGT1 in solution, 3.46, 3.41 and 2.71 mg/mL in 50 mM Tris/HCl pH 7.5, 5 mM DTT with 0, 0.5 or 1 M NaCl, 10°C; SVD and MCR-ALS analysis; dimer to monomers
[2] = target: the molecule itself; test: SAXS; TPR domain in solution, 2 mg/ml in 50 mM Tris HCl pH 7.5, 5 mM DTT with 0, 100, 200, 400, 600 or 800 mM KCl, 15°C; SVD and MCR-ALS analysis; dimer to monomers

Row | Protein | stoichiometry N [1] | stoichiometry N [2]
1 | full-length barley (Hordeum vulgare) SGT1 protein (natural protein, Hordeum vulgare (barley), UniProt Q8W516 1-373, looked up, SGT1 (suppressor of the G2 allele of skp1), Hordeum vulgare, full length cDNA; 373 amino acids in total; Cloned in pET151-D TOPO; His-TEV site cleaved with His-TEV protease (Ser219Val); also called barley SGT1; HvSgt1; source: E. coli BL21 DE3 Codon Plus, purified (HisTrap Ni-NTA, Superdex 200, TEV cleavage, HisTrap, MonoQ)) MAAAAASDLESKAKEAFVDDDFELAAELYTQAIEAGPATAELYADRAQAHIKLGSYTEAVADANKAIELDPSMHKAYLRKGSACIKLEEYQTAKAALEVGSSYASGDSRFTRLMKECDDRIAEEASQAPVKNAAAAVAPATSSGATTVVTEAEDQDGENMENAQPTVEVPSKPKYRHDYYNTPTEVVLTIFAKGVPADSVVVDFGEQMLSVSIELPGEEPYHFQPRLFSKIVPDKCKYTVLSTKVEIRLAKAEPVTWTSLDYTGKPKAPQKINVPAESAQRPSYPSSKSKKDWDKLEAEVKKQEKDEKLDGDAALNKFFREIYSDADEDMRRAMMKSFVESNGTVLSTNWKDVGKKTVEGSPPDGMELKKWEY | 2 | 
2 | TPR domain from Hordeum vulgare SGT1 (6-124) (domain or fragment, Hordeum vulgare (barley), UniProt Q8W516 6-124, looked up, SGT1, Hordeum vulgare, tetratricopeptide repeats (TPR) domain, residues 6-124; Cloned in pETM11 (NcoI/EcoRI) from pET151-HvSgt1; his-tag cleaved with TEV protease; source: E. coli BL21(DE3) Codon Plus, purified (HisTrap, TEV cleavage, HisTrap, Superdex 200)) ASDLESKAKEAFVDDDFELAAELYTQAIEAGPATAELYADRAQAHIKLGSYTEAVADANKAIELDPSMHKAYLRKGSACIKLEEYQTAKAALEVGSSYASGDSRFTRLMKECDDRIAEE |  | 2
